Here are results for one substance from doi:10.1101/2021.02.24.432666.

The target in the assay is yeast TRiC subunit CCT5 (yeast) (UniProt P40413). Put plainly: cryo-EM structure.

“yeast TRiC subunit CCT5 (from UniProt P40413 1-562) (natural protein)”: the stoichiometry N (subunits (single ring)) was 8.
